Paper PMC10397247
One block for each binder: values may come before it.

What was measured:
[1] = biological target: T1, 4H121-AA; assay: two-hybrid library CCmax;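 further: natural log of median RNA to DNA barcode read ratio; higher means stronger binding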
T1 chain: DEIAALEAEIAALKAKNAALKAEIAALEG

[2] = biological target: T2, 4H1350-AA; assay: two-hybrid library CCmax; settings: mean of both orientations;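 further: natural log of median RNA to DNA barcode read ratio; higher means stronger binding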
T2 chain: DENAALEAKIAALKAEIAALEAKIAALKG

[3] = biological target: T3, 4H1710-AA; assay: two-hybrid library CCmax; settings: mean of both orientations;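 further: natural log of median RNA to DNA barcode read ratio; higher means stronger binding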
T3 chain: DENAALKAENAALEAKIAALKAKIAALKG

[4] = biological target: T4, 4H1985-AA; assay: two-hybrid library CCmax; settings: mean of both orientations;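 further: natural log of median RNA to DNA barcode read ratio; higher means stronger binding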
T4 chain: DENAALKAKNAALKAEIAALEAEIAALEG

[5] = biological target: T5, 4H2187-AA; assay: two-hybrid library CCmax; settings: mean of both orientations
T5 chain: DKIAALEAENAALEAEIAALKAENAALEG

[6] = biological target: T6, 4H233-AA; assay: two-hybrid library CCmax; settings: mean of both orientations
T6 chain: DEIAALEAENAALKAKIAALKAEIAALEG

[7] = biological target: T7, 4H2512-AA; assay: two-hybrid library CCmax; settings: mean of both orientations
T7 chain: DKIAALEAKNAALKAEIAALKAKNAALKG

[8] = biological target: T8, 4H2646-AA; assay: two-hybrid library CCmax; settings: mean of both orientations
T8 chain: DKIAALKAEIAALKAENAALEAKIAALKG

[9] = biological target: T9, 4H2687-AA; assay: two-hybrid library CCmax; settings: mean of both orientations
T9 chain: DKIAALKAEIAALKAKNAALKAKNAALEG

[10] = biological target: T10, 4H2705-AA; assay: two-hybrid library CCmax; settings: mean of both orientations
T10 chain: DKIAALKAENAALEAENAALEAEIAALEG

[11] = biological target: T11, 4H2758-AA; assay: two-hybrid library CCmax; settings: mean of both orientations
T11 chain: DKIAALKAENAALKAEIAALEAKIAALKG

[12] = biological target: T12, 4H278-AA; assay: two-hybrid library CCmax; settings: mean of both orientations
T12 chain: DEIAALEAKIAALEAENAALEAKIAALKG

[13] = biological target: T13, 4H2873-AA; assay: two-hybrid library CCmax; settings: mean of both orientations
T13 chain: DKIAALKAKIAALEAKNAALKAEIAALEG

[14] = biological target: T14, 4H2985-AA; assay: two-hybrid library CCmax; settings: mean of both orientations
T14 chain: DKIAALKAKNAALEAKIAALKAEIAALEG

[15] = biological target: T15, 4H3134-AA; assay: two-hybrid library CCmax; settings: mean of both orientations
T15 chain: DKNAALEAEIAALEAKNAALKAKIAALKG

[16] = biological target: T16, 4H3409-AA; assay: two-hybrid library CCmax; settings: mean of both orientations
T16 chain: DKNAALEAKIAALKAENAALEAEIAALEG

[17] = biological target: T17, 4H3625-AA; assay: two-hybrid library CCmax; settings: mean of both orientations
T17 chain: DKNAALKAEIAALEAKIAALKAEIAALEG

[18] = biological target: T18, 4H390-AA; assay: two-hybrid library CCmax; settings: mean of both orientations
T18 chain: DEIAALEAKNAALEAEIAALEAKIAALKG

[19] = biological target: T19, 4H3940-AA; assay: two-hybrid library CCmax; settings: mean of both orientations
T19 chain: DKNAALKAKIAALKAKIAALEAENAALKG

[20] = biological target: T20, 4H510-AA; assay: two-hybrid library CCmax; settings: mean of both orientations
T20 chain: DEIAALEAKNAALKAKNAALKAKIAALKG

[21] = biological target: T21, 4H775-AA; assay: two-hybrid library CCmax; settings: mean of both orientations
T21 chain: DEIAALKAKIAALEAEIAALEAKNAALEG

[22] = biological target: T22, 4H816-AA; assay: two-hybrid library CCmax; settings: mean of both orientations
T22 chain: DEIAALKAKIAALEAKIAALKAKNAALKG

[23] = biological target: T23, 4H87-AA; assay: two-hybrid library CCmax; settings: mean of both orientations
T23 chain: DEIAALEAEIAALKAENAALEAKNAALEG

[24] = biological target: T24, 4H2696-bH; assay: two-hybrid library CCNG1
T24 chain: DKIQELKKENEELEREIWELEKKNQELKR

[25] = biological target: T25, 4H2883-bH; assay: two-hybrid library CCNG1
T25 chain: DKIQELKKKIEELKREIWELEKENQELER

[26] = biological target: T26, 4H2937-bH; assay: two-hybrid library CCNG1
T26 chain: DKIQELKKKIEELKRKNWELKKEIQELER

[27] = biological target: T27, 4H2944-bH; assay: two-hybrid library CCNG1
T27 chain: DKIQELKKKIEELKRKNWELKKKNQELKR

[28] = biological target: T28, 4H342-bH; assay: two-hybrid library CCNG1
T28 chain: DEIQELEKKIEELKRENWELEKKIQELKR

[29] = biological target: T29, 4H48-bH; assay: two-hybrid library CCNG1
T29 chain: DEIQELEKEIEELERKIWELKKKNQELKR

[30] = biological target: T30, 4H491-bH; assay: two-hybrid library CCNG1
T30 chain: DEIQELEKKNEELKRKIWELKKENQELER

interaction score [1]: 0.829 | interaction score [2]: 0.484 | interaction score [3]: 0.228 | interaction score [4]: -1.39 | interaction score [5]: -0.0331 | interaction score [6]: -0.289 | interaction score [7]: -1.66 | interaction score [8]: 2.21 | interaction score [9]: -0.303 | interaction score [10]: 0.603 | interaction score [11]: 0.775 | interaction score [12]: 2.13 | interaction score [13]: 0.239 | interaction score [14]: 0.209 | interaction score [15]: 0.777 | interaction score [16]: 0.672 | interaction score [17]: -0.876 | interaction score [18]: 1.2 | interaction score [19]: -0.784 | interaction score [20]: -1.47 | interaction score [21]: -0.904 | interaction score [22]: -0.458 | interaction score [23]: 0.81
Binder: DEIAALEAEIAALKAKNAALKAEIAALEG [4H121-AA]

interaction score [24]: 0.576 | interaction score [25]: 1.5 | interaction score [26]: 1.47 | interaction score [27]: -0.0809 | interaction score [28]: 0.972 | interaction score [29]: 1.04 | interaction score [30]: 1.73
Binder: DKIQELKKENEELEREIWELEKKNQELKR [4H2696-bH]
